From patent US20210246166A1 (Bayer, published 2021)
Numbered stars: 1 amine (or outer) side, 2 acyl side, 3 side chain; on linkers, the order of the positions; unused ones are H or OH. Bridge positions count the residues as written; N and C are the ends. Square brackets hold non-standard residues; d marks the D form. Primed or numbered codes have the meaning given here. Ends that are not written are not given here. * marks the point of attachment. X12 = (S)‑(trifluoromethyl)‑L‑cysteine, O=C([C@H](CSC(F)(F)F)N[*:1])[*:2]; Tranexamic″ = tranexamic acid, NC[C@H]1CC[C@@H](C(=O)*)CC1; Oic = O=C(O)[C@@H]1C[C@@H]2CCCC[C@@H]2N1; tBuAla = CC(C)(C)C[C@H](N)C(=O)O; Chg = N[C@H](C(=O)O)C1CCCCC1; Pen = CC(C)(S)[C@H](N)C(=O)O; NMeC = CN[C@@H](CS)C(=O)O; Orn = NCCC[C@H](N)C(=O)O; Abu = CC[C@H](N)C(=O)O; PEG2 = NCCOCCOCCC(=O)O; Sar = CNCC(=O)O

Experiments:
[1] = target: T1, Recombinant human MASP1 enzyme (fragment corresponding to amino acids 297-699, C-terminal His Tag) (human, UniProt P48740 297-699); assay: cell-based or functional assay
T1 sequence: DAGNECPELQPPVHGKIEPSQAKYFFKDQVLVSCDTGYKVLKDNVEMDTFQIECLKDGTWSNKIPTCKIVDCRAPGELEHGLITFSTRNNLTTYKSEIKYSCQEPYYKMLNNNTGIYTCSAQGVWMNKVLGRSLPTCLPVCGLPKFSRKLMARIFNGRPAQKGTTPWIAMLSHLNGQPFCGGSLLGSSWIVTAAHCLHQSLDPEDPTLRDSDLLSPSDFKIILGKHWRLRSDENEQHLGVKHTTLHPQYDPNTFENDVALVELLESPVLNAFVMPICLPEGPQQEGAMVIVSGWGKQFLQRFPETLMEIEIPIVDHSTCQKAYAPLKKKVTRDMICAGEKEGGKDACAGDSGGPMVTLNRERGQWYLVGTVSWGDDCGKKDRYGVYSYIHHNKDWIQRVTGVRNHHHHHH

[2] = target: Recombinant human MASP2 enzyme (fragment corresponding to amino acids 297-686, C-terminal His Tag) (human, UniProt O00187 297-686); assay: cell-based or functional assay
Recombinant human MASP2 enzyme (fragment corresponding to amino acids 297-686, C-terminal His Tag), sequence (O00187 other isoform, or with tags, fused parts or gaps limits assumed): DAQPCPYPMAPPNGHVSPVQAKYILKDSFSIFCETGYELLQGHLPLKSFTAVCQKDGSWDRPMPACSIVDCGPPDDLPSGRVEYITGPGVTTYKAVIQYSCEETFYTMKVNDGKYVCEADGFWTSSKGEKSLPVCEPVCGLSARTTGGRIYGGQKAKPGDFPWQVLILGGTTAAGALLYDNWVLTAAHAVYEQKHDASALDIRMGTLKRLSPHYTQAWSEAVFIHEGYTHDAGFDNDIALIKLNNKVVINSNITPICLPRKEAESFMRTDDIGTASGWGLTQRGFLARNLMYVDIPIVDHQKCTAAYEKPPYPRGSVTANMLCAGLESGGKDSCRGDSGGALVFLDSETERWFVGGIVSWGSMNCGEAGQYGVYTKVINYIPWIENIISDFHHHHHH

Binder | human MASP1 IC50 [1] [nM] | human MASP2 IC50 [2] [nM]
{Tranexamic″}-ICSRS[tBuAla]PPI[Pen]IP-{PEG2-NH2} (disulfide 2-10; SMILES CC[C@H](C)[C@@H]1NC(=O)[C@@H]2CCCN2C(=O)[C@@H]2CCCN2C(=O)[C@H](CC(C)(C)C)NC(=O)[C@H](CO)NC(=O)[C@H](CCCNC(=N)N)NC(=O)[C@H](CO)NC(=O)[C@@H](NC(=O)[C@@H](NC(=O)[C@H]2CC[C@@H](CN)CC2)[C@@H](C)CC)CSSC(C)(C)[C@@H](C(=O)N[C@H](C(=O)N2CCC[C@H]2C(=O)NCCOCCOCCC(N)=O)[C@@H](C)CC)NC1=O) [(Tranexamic)-IC+SRS-((tBu)A)-PPI-(Pen)+IP-(PEG1(10 atoms))-NH2] | 6.5 | 13
AICSRSLPP[Chg]CIPD-OH (disulfide 3-11; N-terminus assumed; SMILES CC[C@H](C)[C@H](NC(=O)[C@H](C)N)C(=O)N[C@H]1CSSC[C@@H](C(=O)N[C@H](C(=O)N2CCC[C@H]2C(=O)N[C@@H](CC(=O)O)C(=O)O)[C@@H](C)CC)NC(=O)[C@H](C2CCCCC2)NC(=O)[C@@H]2CCCN2C(=O)[C@@H]2CCCN2C(=O)[C@H](CC(C)C)NC(=O)[C@H](CO)NC(=O)[C@H](CCCNC(=N)N)NC(=O)[C@H](CO)NC1=O) [AIC+SRSLPP-(Chg)-C+IPD-OH] | 6.5 | 140
WICSRS[tBuAla]PPI[NMeC]I-NH2 (disulfide 3-11; N-terminus assumed; SMILES CC[C@H](C)[C@H](NC(=O)[C@@H]1CSSC[C@H](NC(=O)[C@@H](NC(=O)[C@@H](N)Cc2c[nH]c3ccccc23)[C@@H](C)CC)C(=O)N[C@@H](CO)C(=O)N[C@@H](CCCNC(=N)N)C(=O)N[C@@H](CO)C(=O)N[C@@H](CC(C)(C)C)C(=O)N2CCC[C@H]2C(=O)N2CCC[C@H]2C(=O)N[C@@H]([C@@H](C)CC)C(=O)N1C)C(N)=O) [WIC+SRS-((tBu)A)-PPI-((N-Me)C)+I-NH2] | 6.6 | 120
AICSRSLP[Oic]ICIPD-NH2 (disulfide 3-11; N-terminus assumed; SMILES CC[C@H](C)[C@H](NC(=O)[C@H](C)N)C(=O)N[C@H]1CSSC[C@@H](C(=O)N[C@H](C(=O)N2CCC[C@H]2C(=O)N[C@@H](CC(=O)O)C(N)=O)[C@@H](C)CC)NC(=O)[C@H]([C@@H](C)CC)NC(=O)[C@@H]2C[C@@H]3CCCC[C@@H]3N2C(=O)[C@@H]2CCCN2C(=O)[C@H](CC(C)C)NC(=O)[C@H](CO)NC(=O)[C@H](CCCNC(=N)N)NC(=O)[C@H](CO)NC1=O) [AIC+SRSLP-(Oic)-IC+IPD-NH2] | 6.9 | 400
[Orn]ICSRSLPP[Chg]CIPD-OH (disulfide 3-11; N-terminus assumed; SMILES CC[C@H](C)[C@H](NC(=O)[C@@H](N)CCCN)C(=O)N[C@H]1CSSC[C@@H](C(=O)N[C@H](C(=O)N2CCC[C@H]2C(=O)N[C@@H](CC(=O)O)C(=O)O)[C@@H](C)CC)NC(=O)[C@H](C2CCCCC2)NC(=O)[C@@H]2CCCN2C(=O)[C@@H]2CCCN2C(=O)[C@H](CC(C)C)NC(=O)[C@H](CO)NC(=O)[C@H](CCCNC(=N)N)NC(=O)[C@H](CO)NC1=O) [(Orn)-IC+SRSLPP-(Chg)-C+IPD-OH] | 6.9 | 49
{2‑(3-Pyridyl)acetyl}-ICSRS[tBuAla]PPI[Pen]IP-NH2 (disulfide 2-10) [(2-(3-Pyridyl)acetic acid)-IC+SRS-((tBu)A)-PPI-(Pen)+IP-NH2] | 7 | 8.5
[2‑(Cyclohexylamino)acetyl]ICSRS[tBuAla]PPI[Pen]IPD-NH2 (disulfide 3-11) [(2-(Cyclohexylamino)acetyl)-IC+SRS-((tBu)A)-PPI-(Pen)+IPD-NH2] | 7.1 | 200
[Abu]ICSRSLPPICIPD-NH2 (disulfide 3-11; N-terminus assumed; SMILES CC[C@H](N)C(=O)N[C@H](C(=O)N[C@H]1CSSC[C@@H](C(=O)N[C@H](C(=O)N2CCC[C@H]2C(=O)N[C@@H](CC(=O)O)C(N)=O)[C@@H](C)CC)NC(=O)[C@H]([C@@H](C)CC)NC(=O)[C@@H]2CCCN2C(=O)[C@@H]2CCCN2C(=O)[C@H](CC(C)C)NC(=O)[C@H](CO)NC(=O)[C@H](CCCNC(=N)N)NC(=O)[C@H](CO)NC1=O)[C@@H](C)CC) [(Abu)-IC+SRSLPPIC+IPD-NH2] | 7.2 | 300
AICSRS[tBuAla]P[Oic]I[NMeC]IPD-OH (disulfide 3-11; N-terminus assumed; SMILES CC[C@H](C)[C@H](NC(=O)[C@H](C)N)C(=O)N[C@H]1CSSC[C@@H](C(=O)N[C@H](C(=O)N2CCC[C@H]2C(=O)N[C@@H](CC(=O)O)C(=O)O)[C@@H](C)CC)N(C)C(=O)[C@H]([C@@H](C)CC)NC(=O)[C@@H]2C[C@@H]3CCCC[C@@H]3N2C(=O)[C@@H]2CCCN2C(=O)[C@H](CC(C)(C)C)NC(=O)[C@H](CO)NC(=O)[C@H](CCCNC(=N)N)NC(=O)[C@H](CO)NC1=O) [AIC+SRS-((tBu)A)-P-(Oic)-I-((N-Me)C)+IPD-OH] | 7.2 | 190
[Sar]ICSRSLPPI[NMeC]IPD-OH (disulfide 3-11; N-terminus assumed; SMILES CC[C@H](C)[C@H](NC(=O)CNC)C(=O)N[C@H]1CSSC[C@@H](C(=O)N[C@H](C(=O)N2CCC[C@H]2C(=O)N[C@@H](CC(=O)O)C(=O)O)[C@@H](C)CC)N(C)C(=O)[C@H]([C@@H](C)CC)NC(=O)[C@@H]2CCCN2C(=O)[C@@H]2CCCN2C(=O)[C@H](CC(C)C)NC(=O)[C@H](CO)NC(=O)[C@H](CCCNC(=N)N)NC(=O)[C@H](CO)NC1=O) [((N-Me)G)-IC+SRSLPPI-((N-Me)C)+IPD-OH] | 7.3 | 1700
[dA]ICSRS[X12]PPI[Pen]IP-NH2 (disulfide 3-11; N-terminus assumed; SMILES CC[C@H](C)[C@H](NC(=O)[C@@H](C)N)C(=O)N[C@H]1CSSC(C)(C)[C@@H](C(=O)N[C@H](C(=O)N2CCC[C@H]2C(N)=O)[C@@H](C)CC)NC(=O)[C@H]([C@@H](C)CC)NC(=O)[C@@H]2CCCN2C(=O)[C@@H]2CCCN2C(=O)[C@H](CSC(F)(F)F)NC(=O)[C@H](CO)NC(=O)[C@H](CCCNC(=N)N)NC(=O)[C@H](CO)NC1=O) [aIC+SRS-((S)-(trifluoromethyl)-L-cysteine)-PPI-(Pen)+IP-NH2] | 7.3 | 19
AICSRS[tBuAla]P[Oic]ICIPD-NH2 (disulfide 3-11; N-terminus assumed; SMILES CC[C@H](C)[C@H](NC(=O)[C@H](C)N)C(=O)N[C@H]1CSSC[C@@H](C(=O)N[C@H](C(=O)N2CCC[C@H]2C(=O)N[C@@H](CC(=O)O)C(N)=O)[C@@H](C)CC)NC(=O)[C@H]([C@@H](C)CC)NC(=O)[C@@H]2C[C@@H]3CCCC[C@@H]3N2C(=O)[C@@H]2CCCN2C(=O)[C@H](CC(C)(C)C)NC(=O)[C@H](CO)NC(=O)[C@H](CCCNC(=N)N)NC(=O)[C@H](CO)NC1=O) [AIC+SRS-((tBu)A)-P-(Oic)-I-C+IPD-NH2] | 7.4 | 260
